The target of this assay is LDL receptor (cell surface) (UniProt P01130). In words: other, cell binding, total binding double reciprocal plot.
LDL receptor (cell surface), sequence (P01130 22-788): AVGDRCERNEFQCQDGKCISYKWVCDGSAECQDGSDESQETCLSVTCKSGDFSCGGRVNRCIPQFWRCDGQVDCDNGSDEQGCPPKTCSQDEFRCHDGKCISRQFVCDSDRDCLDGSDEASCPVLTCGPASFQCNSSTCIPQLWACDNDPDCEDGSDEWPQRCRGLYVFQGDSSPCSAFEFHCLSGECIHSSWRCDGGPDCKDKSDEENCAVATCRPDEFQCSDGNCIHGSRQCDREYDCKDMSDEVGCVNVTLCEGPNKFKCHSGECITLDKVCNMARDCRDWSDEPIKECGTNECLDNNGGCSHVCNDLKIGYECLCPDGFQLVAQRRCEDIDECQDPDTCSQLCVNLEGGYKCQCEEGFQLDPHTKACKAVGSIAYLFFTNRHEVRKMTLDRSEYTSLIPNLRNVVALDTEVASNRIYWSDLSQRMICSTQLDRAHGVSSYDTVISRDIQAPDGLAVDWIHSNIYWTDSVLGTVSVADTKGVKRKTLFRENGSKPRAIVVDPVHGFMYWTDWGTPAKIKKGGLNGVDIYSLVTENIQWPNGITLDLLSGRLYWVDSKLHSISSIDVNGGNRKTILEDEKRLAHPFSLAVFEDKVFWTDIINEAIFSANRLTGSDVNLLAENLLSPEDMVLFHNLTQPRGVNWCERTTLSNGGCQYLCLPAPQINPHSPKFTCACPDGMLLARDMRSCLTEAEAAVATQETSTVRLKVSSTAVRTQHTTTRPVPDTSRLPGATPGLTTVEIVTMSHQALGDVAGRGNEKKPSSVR
A word on the Kd: it is the constant that tells how readily two partners part at equilibrium. A higher Kd goes with a looser complex. Molecule YKLEGTTRLTRKRGLKLATALS [[Peptide D] nLDL] returned a Kd of 3 µM.

Molecule TGKRYRLKTLRTLKKTSLLEAA [[Peptide E] nLDL] showed a Kd of 15.2 µM.

Molecule GTTRLTRKRGLKL [[Peptide B] nLDL] had a Kd of 9.3 µM.

YKLQGTTRLTRKRGLKLATALS [[Peptide C] nLDL] registered a Kd of 7.7 µM.

The record behind these values is patent publication US20120059148 (published 2012).
